Assay results: patent US20160060356A1 (Hoffmann-La Roche, published 2016)

How the values were obtained:
[1] = target: T1, human Fibroblast Activation Protein (FAP) on cells or in tissue (human, UniProt Q12884 1-760); experiment: FACS on HEK293 cells stably transfected with human FAP
T1 construct: whole, on cells; Expressed on stably transfected HEK293 cells, on the human fibroblast cell line GM05389, on human tumor cell lines and in human tumor tissue sections; also called human FAP; hFAP

[2] = target: T2, murine Fibroblast Activation Protein (FAP) on stably transfected HEK293 cells (mouse, UniProt P97321 1-761); experiment: FACS on HEK293 cells stably transfected with murine FAP
T2 construct: whole, on cells; also called murine FAP

[3] = target: T3, human Fibroblast Activation Protein (FAP) ectodomain with C-terminal poly-lysine and 6xHis-tag (human, UniProt Q12884 27-760); experiment: SPR (Biacore T100), His-tagged FAP captured by anti-His antibody, IgG as analyte (avidity)
T3 construct: Recombinant soluble antigen used in selections, ELISA and SPR; also called hu FAP; human FAP
Description: (§1) For immobilization carboxymethylated dextran biosensor chips (CMS, GE Healthcare) were activated with N-ethyl-N′-(3-dimethylaminopropyl)-carbodiimide hydrochloride (EDC) and N-hydroxysuccinimide (NHS) according to the supplier's instructions. The Penta His antibody was diluted with 10 mM sodium acetate, pH 5, to 40 μg/ml before injection at a flow rate of 10 μl/minute to achieve approximately 9000 response units (RU) of coupled protein. Following the injection of the ligand, 1 M ethanolamine was injected to block unreacted groups.
(§2) For kinetics measurements, human, mouse or Cynomolgus FAP extracellular domain was injected at 10 μl/min at 10 nM for 20 s (for Fab fragments) or at 20 nM for 25 s (for IgG) and was captured via its His tag by the immobilized penta His antibody. […] The following parameters were applied: Association time 180 s, dissociation 300 s (for Fab) or 900 s (for IgG), regeneration with 10 mM glycine pH 2 for 60 s between each cycle. Association rates (kₒₙ) and dissociation rates (koff) were calculated using a simple one-to-one Langmuir binding model (BIACORE® T100 Evaluation Software version 1.1.1) by simultaneously fitting the association and dissociation sensorgrams (model parameters were local Rmax and RI=0). The equilibrium dissociation constant (KD) was calculated as the ratio koff/kₒₙ.

[4] = target: T4, murine Fibroblast Activation Protein (FAP) ectodomain with C-terminal poly-lysine and 6xHis-tag (mouse, UniProt P97321 27-761); experiment: as above
T4 construct: also called mu FAP; murine FAP
Description: as §1, §2

[5] = target: T5, Cynomolgus Fibroblast Activation Protein (FAP) ectodomain with C-terminal poly-lysine and 6xHis-tag (cynomolgus monkey, UniProt Q12884 27-760 (human entry)); experiment: as above
T5 construct: also called cyno FAP; Cynomolgus FAP extracellular domain
Description: as §1, §2

[6] = target: T6, HER2 on stably transfected HEK293 cells (UniProt P04626 23-1255, limits assumed); experiment: FACS on HEK293 cells stably expressing HER2, PE goat anti-human IgG Fc gamma detection
T6 construct: whole, on cells

[7] = target: T7, DPPIV (CD26) on stably transfected HEK293 cells (UniProt P27487 1-766); experiment: FACS on HEK293 cells stably expressing DPPIV, PE goat anti-human IgG Fc gamma detection
T7 construct: whole, on cells; also called dipeptidyl peptidase IV

[8] = target: T3, human Fibroblast Activation Protein …; experiment: SPR (Biacore T100), His-tagged FAP captured by anti-His antibody, Fab as analyte
Description: as §1, §2

[9] = target: T4, murine Fibroblast Activation Protein …; experiment: as above
Description: as §1, §2

[10] = target: T5, Cynomolgus Fibroblast Activation …; experiment: as above
Description: as §1, §2

Binder	EC50 [1] [nM]	EC50 [2] [nM]	Kd [3] [nM]	Kd [4] [nM]	Kd [5] [nM]	binding result [6]	binding result [7]	Kd [8] [nM]	Kd [9] [nM]	Kd [10] [nM]
4G8 human IgG1 antibody (antibody, V domains shown, Wild-type and glycoengineered versions were used in the ADCC assay; also called IgG 4G8; 4G8 IgG) VH: not shown VL: EIVLTQSPGTLSLSPGERATLSCRASQSVSRSYLAWYQQKPGQAPRLLIIGASTRATGIPDRFSGSGSGTDFTLTISRLEPEDFAVYYCQQGQVIPPTFGQGTKVEIK	5	1.7	0.051	0.001	0.059	no binding (tested: 30 µg/ml)	no binding (tested: 30 µg/ml)			
3F2 human IgG1 antibody (antibody, V domains shown, Wild-type and glycoengineered versions were used in the ADCC assay; also called IgG 3F2; 3F2 IgG) VH: not shown VL: EIVLTQSPGTLSLSPGERATLSCRASQSVTSSYLAWYQQKPGQAPRLLINVGSRRATGIPDRFSGSGSGTDFTLTISRLEPEDFAVYYCQQGIMLPPTFGQGTKVEIK	4.8	1	0.039	0.029	0.042	no binding (tested: 30 µg/ml)	no binding (tested: 30 µg/ml)			

Further lines, results first:

EC50 [1] [nM]	EC50 [2] [nM]	Kd [3] [nM]	Kd [4] [nM]	Kd [5] [nM]	binding result [6]	binding result [7]	Kd [8] [nM]	Kd [9] [nM]	Kd [10] [nM]	Binder
							13	14	11	3F2 Fab fragment (Fab, V domains shown, also called Fab fragment 3F2; clone 3F2) VH: not shown VL: EIVLTQSPGTLSLSPGERATLSCRASQSVTSSYLAWYQQKPGQAPRLLINVGSRRATGIPDRFSGSGSGTDFTLTISRLEPEDFAVYYCQQGIMLPPTFGQGTKVEIK
							74	≤ 7	56	4G8 Fab fragment (Fab, V domains shown, also called Fab fragment 4G8; clone 4G8) VH: not shown VL: EIVLTQSPGTLSLSPGERATLSCRASQSVSRSYLAWYQQKPGQAPRLLIIGASTRATGIPDRFSGSGSGTDFTLTISRLEPEDFAVYYCQQGQVIPPTFGQGTKVEIK
5.5	1.6				no binding (tested: 30 µg/ml)	no binding (tested: 30 µg/ml)				4B3 human IgG1 antibody (antibody, V domains shown, Human IgG1 format; also called 4B3 IgG) VH: not shown VL: EIVLTQSPGTLSLSPGERATLSCRASQSVSSNYLAWYQQKPGQAPRLLIYGAYIRATGIPDRFSGSGSGTDFTLTISRLEPEDFAVYYCQQGQVIPPTFGQGTKVEIK
